Results reported in patent US20200283729A1.

How the values were obtained:
[1] = molecular target: Folate receptor alpha on cells (SKOV3, A1847, T47D, 293T, IOSE6) (human) (UniProt P15328); assay: cell-based or functional assay
[2] = molecular target: biotin-labeled recombinant FRa protein (R&D Systems, Inc) (UniProt P15328); assay: flow cytometry; transduced primary human T cells stained with biotin-labeled recombinant FRA protein, then SA-PE; plotted against CD8
[3] = molecular target: Recombinant mesothelin-extracellular domain protein on beads (UniProt Q13421); assay: cell-based or functional assay
Chain of Recombinant mesothelin-extracellular domain protein on beads (Q13421 other isoform, or with tags, fused parts or gaps limits assumed): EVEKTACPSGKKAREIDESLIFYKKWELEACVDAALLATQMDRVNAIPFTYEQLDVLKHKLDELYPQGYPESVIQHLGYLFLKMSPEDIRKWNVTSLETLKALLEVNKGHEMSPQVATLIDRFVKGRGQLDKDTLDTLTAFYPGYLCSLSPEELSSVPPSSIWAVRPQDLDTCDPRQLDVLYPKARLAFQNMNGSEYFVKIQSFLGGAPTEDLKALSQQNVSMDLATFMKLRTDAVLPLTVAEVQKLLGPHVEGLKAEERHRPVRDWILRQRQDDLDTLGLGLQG

CD19-BBZ CAR on T cells = assay: flow cytometry; T cells one day after CD19-BBZ CAR mRNA electroporation, stained with anti-mouse IgG Fab antibody

Chain of biotin-labeled recombinant FRa protein (R&D Systems, Inc) (P15328 25-233 limits assumed): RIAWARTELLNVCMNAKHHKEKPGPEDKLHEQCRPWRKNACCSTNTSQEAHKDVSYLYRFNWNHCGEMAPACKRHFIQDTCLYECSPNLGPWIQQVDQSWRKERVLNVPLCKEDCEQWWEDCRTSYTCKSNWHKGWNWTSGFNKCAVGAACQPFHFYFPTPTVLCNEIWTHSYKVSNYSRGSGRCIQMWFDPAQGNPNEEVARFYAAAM
Chain of Folate receptor alpha on cells (SKOV3, A1847, T47D, 293T, IOSE6) (human) (P15328 25-234, stated change not applied): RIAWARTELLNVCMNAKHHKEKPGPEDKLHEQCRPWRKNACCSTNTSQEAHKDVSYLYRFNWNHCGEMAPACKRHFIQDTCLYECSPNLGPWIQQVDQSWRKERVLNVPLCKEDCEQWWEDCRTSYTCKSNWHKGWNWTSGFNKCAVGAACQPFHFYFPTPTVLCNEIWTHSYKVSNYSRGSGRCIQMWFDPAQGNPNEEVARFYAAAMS

Substance: MOv19-27z CAR on human T cells
- surface CAR expression after exposure to SKOV3 cells [1]: 1 % of T cells
- percent of cells CD8+ and FRA CAR+ (upper right quadrant) [2]: 41.2%
- percent of cells CD8- and FRA CAR+ (lower right quadrant) [2]: 31.3%

Substance: anti-mesothelin CAR (mesoCAR, SS1 BBZ) on wild-type mouse T cells
- % IFN-γ cytokine-producing cells after 6 hours with coated beads (flow cytometry) [3]: 7%

Substance: anti-mouse IgG Fab antibody (detection reagent for the 19BBZ panel)
- percent of cells in the CAR-positive gate (CD19-BBZ CAR on T cells): 98.5
